Here are results for three molecules from US6462178B1, “G protein” (Yong Hou Wong, priority 1999, dated 2002).

Assay [1] has as its target T1, dopamine D2 receptor (Homo sapiens, UniProt P14416). The following applies: COS-7, receptor + Gα16, 10 μM dopamine, cited from earlier work.
The target of assay [2] is T1, dopamine D2 receptor. The following applies: 10 μM dopamine; for IP Formation % Res.: relative to basal.
The target of a further assay is T2, melatonin Mel1b receptor.
T2 sequence (P49286 whole entry, species assumed, looked up): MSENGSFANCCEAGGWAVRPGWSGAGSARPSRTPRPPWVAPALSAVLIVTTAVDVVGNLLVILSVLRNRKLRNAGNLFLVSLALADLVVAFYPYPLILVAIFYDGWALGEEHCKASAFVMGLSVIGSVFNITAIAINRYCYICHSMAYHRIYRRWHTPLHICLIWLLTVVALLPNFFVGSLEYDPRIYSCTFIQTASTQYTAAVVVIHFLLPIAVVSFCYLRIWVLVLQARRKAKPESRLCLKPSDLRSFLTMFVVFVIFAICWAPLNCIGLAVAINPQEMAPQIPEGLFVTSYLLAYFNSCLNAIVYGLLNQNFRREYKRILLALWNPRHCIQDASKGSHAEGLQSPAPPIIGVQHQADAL

The target of assay [3] is formyl peptide (fMLP) receptor.
For assay [4], the target named is dopamine D2 receptor.
Assay [5] deals with melatonin Mel1c receptor.
For assay [6], the target named is melatonin Mel1c receptor. The source holds these as a separate data set.
Assay [7] deals with opioid receptor-like (ORL1) receptor.
The mark [8] stands for this setting: COS-7, receptor + 16z25 chimera.
Where [9] appears, read: COS-7, receptor + 16z44 chimera.

Like-named read-outs stand apart in the source and are kept apart here.

T1 sequence (P14416 whole entry): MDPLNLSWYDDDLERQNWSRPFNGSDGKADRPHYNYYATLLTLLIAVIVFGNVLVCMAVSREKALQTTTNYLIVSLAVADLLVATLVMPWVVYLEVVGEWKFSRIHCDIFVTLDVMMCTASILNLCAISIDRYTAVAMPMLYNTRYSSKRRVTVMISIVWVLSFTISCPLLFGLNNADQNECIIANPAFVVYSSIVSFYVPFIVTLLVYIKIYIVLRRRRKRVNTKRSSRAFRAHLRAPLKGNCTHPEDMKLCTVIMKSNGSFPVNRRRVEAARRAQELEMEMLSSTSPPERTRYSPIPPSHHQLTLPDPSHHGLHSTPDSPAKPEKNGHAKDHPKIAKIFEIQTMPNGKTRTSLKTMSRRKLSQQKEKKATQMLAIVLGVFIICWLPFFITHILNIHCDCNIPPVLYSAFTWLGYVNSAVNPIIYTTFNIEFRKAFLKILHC
T1 sequence (P14416 whole entry): as above
Chain of complement C5a receptor (P21730 whole entry): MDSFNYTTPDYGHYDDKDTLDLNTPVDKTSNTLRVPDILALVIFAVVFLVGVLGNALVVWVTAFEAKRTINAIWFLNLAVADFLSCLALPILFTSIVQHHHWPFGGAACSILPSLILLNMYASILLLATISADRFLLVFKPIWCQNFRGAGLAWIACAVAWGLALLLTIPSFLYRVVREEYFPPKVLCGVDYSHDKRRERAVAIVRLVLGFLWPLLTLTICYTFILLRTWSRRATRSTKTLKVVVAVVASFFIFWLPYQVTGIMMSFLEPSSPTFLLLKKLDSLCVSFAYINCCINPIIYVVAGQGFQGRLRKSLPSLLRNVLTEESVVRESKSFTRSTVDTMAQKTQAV

On to `NCCc1ccc(O)c(O)c1` [dopamine], for which the “IP Formation Agonist” value at dopamine D2 receptor [1] was 24.0 ± 2.3; at dopamine D2 receptor [2] (setting [8]) it was 40.1 ± 0.9; at dopamine D2 receptor [2] (setting [9]) it was 84.5 ± 6.2. In addition, the “IP Formation % Res.” value at dopamine D2 receptor [1] (relative to basal) is listed as 207a %; at dopamine D2 receptor [2] (setting [8]), 324%; at dopamine D2 receptor [2] (setting [9]), 302%.

B1: 16z25 chimera (protein)
chain: MARSLTWRCCPWCLTEDEKAAARVDQEINRILLEQKKQDRGELKLLLLGPGESGKSTFIKQMRIIHGAGYSEEERKGFRPLVYQNIFVSMRAMIEAMERLQIPFSRPESKHHASLVMSQDPYKVTTFEKRYAAAMQWLWRDAGIRACYERRREFHLLDSAVYYLSHLERITEEGYVPTAQDVLRSRMPTTGINEYCFSVQKTNLRIVDVGGQKSERKKWIHCFENVIALIYLASLSEYDQCLEENNQENRMKESLALFGTILELPWFKSTSVILFLNKTDILEEKIPTSHLATYFPSFQGPKQDAEAAKRFILDMYTRMYTGCVDGPEGSKKGARSRRLFSHYTCATDTSNIQFVFDAVTDVIIQNNLKYIGLC
As for B1, the IP formation (PLC stimulation), % Res. with dopamine D1 receptor was determined as 214 % Res; in the assay with melatonin Mel1a receptor, 150 % Res; with δ-opioid receptor it was 287 % Res; with β2-adrenergic receptor it was 360 % Res; with µ-opioid receptor, 224 % Res; with melatonin Mel1b receptor it was 155 % Res. In addition, the IP formation (PLC stimulation), % Res. with κ-opioid receptor was determined as 188 % Res; in assay [3] it was 352 % Res; in the assay with complement C5a receptor it was 432 % Res; in the assay with dopamine D2 receptor [4] it was 324 % Res; with α2-adrenergic receptor it was 365 % Res; in the assay with vasopressin V2 receptor, 291 % Res. The IP formation (PLC stimulation), % Res. was determined as 270 % Res with melatonin Mel1c receptor [5] and 197 % Res in the assay with adenosine A1 receptor.

B2: 16z44 chimera (protein)
chain: MARSLTWRCCPWCLTEDEKAAARVDQEINRILLEQKKQDRGELKLLLLGPGESGKSTFIKQMRIIHGAGYSEEERKGFRPLVYQNIFVSMRAMIEAMERLQIPFSRPESKHHASLVMSQDPYKVTTFEKRYAAAMQWLWRDAGIRACYERRREFHLLDSAVYYLSHLERITEEGYVPTAQDVLRSRMPTTGINEYCFSVQKTNLRIVDVGGQKSERKKWIHCFENVIALIYLASLSEYDQCLEENNQENRMKESLALFGTILELPWFKSTSVILFLNKTDILEEKIPTSHLATYFPSFQGPKQDAEAAKRFILDMYTRMYTGCVDGPEGSNRNKETKEIYSHFTCATDTSNIQFVFDAVTDVIIQNNLKYIGLC
Regarding B2, the IP formation, enhancement of the agonist response by coexpressed 16z44 with bombesin receptor is 57%; in the assay with 5HT1c receptor, 43%; with muscarinic m1 receptor, 34%. Further, in the assay with melatonin Mel1c receptor [6], the EC50 of 2-iodomelatonin for IP formation worked out at 0.4 nM. Also, the IP formation (PLC stimulation), % Res. in the assay with dopamine D1 receptor amounted to 287 % Res; with melatonin Mel1a receptor, 171 % Res; with δ-opioid receptor, 548 % Res; with β2-adrenergic receptor, 307 % Res; with µ-opioid receptor it was 269 % Res; with melatonin Mel1b receptor it was 177 % Res. Besides, the IP formation (PLC stimulation), % Res. in the assay with κ-opioid receptor is 257 % Res; in assay [3] it was 428 % Res; with complement C5a receptor it was 457 % Res; with dopamine D2 receptor [4], 302 % Res; in assay [7], 380 % Res; with α2-adrenergic receptor it was 297 % Res. In addition, the IP formation (PLC stimulation), % Res. with vasopressin V2 receptor was 321 % Res; with melatonin Mel1c receptor [5] it was 307 % Res; with adenosine A1 receptor, 188 % Res.
